Results on 1 substance are retold here after publication PMC12965321.

The target of the test is RING1 [the product of Sex combs extra (Sce) gene] (D. melanogaster (endogenous in embryos)) (UniProt Q9VB08). Description: co-IP; nuclear extract of RYBP-KO, Siesta-Strep embryos (no RYBP), dialysed against 25 mM Hepes-KOH pH 7.6, 0.1 M KCl; anti-RING1 cross-linked to Dynabeads or Strep-Tactin Sepharose, 0.02% NP-40, overnight at 4°C; Western blot; compared with Siesta-Strep extract.
Sequence of UniProt Q9VB08 (Q9VB08 whole entry): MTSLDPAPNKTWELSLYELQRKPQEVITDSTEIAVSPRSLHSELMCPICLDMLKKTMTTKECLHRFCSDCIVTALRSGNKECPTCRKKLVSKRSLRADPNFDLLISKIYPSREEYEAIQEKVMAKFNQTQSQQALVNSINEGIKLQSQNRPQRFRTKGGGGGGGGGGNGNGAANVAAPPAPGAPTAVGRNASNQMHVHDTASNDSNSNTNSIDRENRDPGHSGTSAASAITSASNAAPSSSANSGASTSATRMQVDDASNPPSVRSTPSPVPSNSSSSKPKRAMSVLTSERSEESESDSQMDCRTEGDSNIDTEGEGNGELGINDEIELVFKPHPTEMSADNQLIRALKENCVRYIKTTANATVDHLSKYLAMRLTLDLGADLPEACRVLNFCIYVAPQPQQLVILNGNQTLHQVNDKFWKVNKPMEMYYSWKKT

In turn, “Twin-Strep-tagged and Myc-tagged Siesta protein (natural protein)” had a fold reduction of coimmunoprecipitation without RYBP against extract with RYBP above 6 fold.
